According to the DeepSol protein solubility set:

Experiment: soluble on expression in E. coli; label from the status in PepcDB or PDB records

| Sequence | soluble on expression in E. coli |
| --- | --- |
| MATVDPIRYPIGTFQAPQQFEAGEVQEWIAAIRGLPNDLRTAVSGLNDEQLNTPYRDGGWTVAQVVHHLADASMNAFLRTKWGVTEDGPTVKPFAESEWAKTADACSLPIEPSLLLLDGLHARWAALLESMTEADFHRTVRPEGAAGEMPLYVLTALYAWHGKHHTAQVASLRKRKGW | not soluble |
| SEAMFCDFPKINHGILYDEEKYKPFSQVPTGEVFYYSCEYNFVSPSKSFWTRITCAEEGWSPTPKCLRLCFFPFVENGHSESSGQTHLEGDTVQIICNTGYRLQNNENNISCVERGWSTPPKCRSTISAEKCGPPPPIDNGDITSFLLSVYAPGSSVEYQCQNLYQLEGNNQITCRNGQWSEPPKCLDPCVISQEIMEKYNIKLKWTNQQKLYSRTGDIVEFVCKSGYHPTKSHSFRAMCQNGKLVYPSCEEK | soluble |
| MDSARALIARGWGVSLVSRCLRVSRAQLHVILRRTDDWMDGRRSRHTDDTDVLLRIHHVIGELPTYGYRRVWALLRRQAELDGMPAINAKRVYRLMRQNALLLERKPAVPPSKRAHTGRVAVKESNQRWCSDGFEFCCDNGERLRVTFALDCCDREALHWAGTTGGFNSETVQDVMLGAVERRFGNDLPSSPVEWLTDNGSCYRANETRQFARMLGLEPKNTAVRSPESNGIAESFVKTIKRDYISIMPKPDGLTAAKNLAEAFEHYNEWHPHSALGYRSPREYLRQRACNGLSDNRCLEI | not soluble |
| MGFAKPPWGGKLKGVVRILGGKARGVALKVPASARPSPVRLRKALFDYLRLRYPRRGRFLDLFAGSGAVGLEAASEGWEAVLVEKDPEAVRLLKENVRRTGLGARVVALPVEVFLPEAKAQGERFTVAFMAPPYAMDLAALFGELLASGLVEAGGLYVLQHPKDLYLPLGERRVYGENALTLVEV | soluble |
| GSHMNTLKKAFEILDFIVKNPGDVSVSEIAEKFNMSVSNAYKYMVVLEEKGFVLRKKDKRYVPGYKLIEYGSFVLRRFNIRDIAHDHLVDIMKRTGETVHLILKDGFEGVYIDKVEGEQSIPMVSRLGMKVDLYSTASGKSILAFVPEKELKEYLKIVELKPKTPNTITNPRVLKRELEKIRKRGYAVDNEENEIGIMCVGVPIFDHNGYPVAGVSISGVARKFTEEKIEEYSDVLKEKAEEISRKLGY | soluble |
| SPRGLELLIAQTILQGFDAQYGRFLEVTSGAQQRFEQADWHAVQQAMKNRIHLYDHHVGLVVEQLRCITNGQSTDAEFLLRVKEHYTRLLPDYPRFEIAESFFNSVYCRLFDHRSLTPERLFIFSSQPERRFRTIPRPLAKDFHPDHGWESLLMRVISDLPLRLHWQNKSRDIHYIIRHLTETLGPENLSKSHLQVANELFYRNKAAWLVGKLITPSGTLPFLLPIHQTDDGELFIDTCLTTTAEASIVFGFARSYFMVYAPLPAALVEWLREILPGKTTAELYMAIGCQKHAKTESYREYLVYLQGCNEQFIEAPGIRGMVMLVFTLPGFDRVFKVIKDKFAPQKEMSAAHVRACYQLVKEHDRVGRMADTQEFENFVLEKRHISPALMELLLQEAAEKITDLGEQIVIRHLYIERRMVPLNIWLEQVEGQQLRDAIEEYGNAIRQLAAANIFPGDMLFKNFGVTRHGRVVFYDYDEICYMTEVNFRDIPPPRYPEDELASEPWYSVSPGDVFPEEFRHWLCADPRIGPLFEEMHADLFRADYWRALQNRIREGHVEDVYAYRRRQRFSVRYGEMLF | soluble |
| GPGSMRYRLRLDAFAPAGSLPCCRILTQVRNLNMNRSVQTRWESDNQVASQKRTDYDFDKEQWSKQMRFASMDCVMDPDITPIKYTSVTGLKKVLRRFMTMRKLIDRRPDFKTDDLKKLFIQLKTISHSRSLEDLKVLQRLTTHGEASRISKEIKTRMNDEFAKKSWKSLKMQEVSNTYQIELDSFQLVNCYMGQMSKEDWLQITYKCEFRERKGDNEEWQSVCEYPVFEVRLGDGVQSPNTHHFIIVGIMRKDGTRYGKDAQDAASLRKQFDRSRKWF | not soluble |
| MLPSSIEDYALIGDCETAALVGRDGSIDWLCWPSFDSEACFAALLGNEDNGRWQIAPADEVVRCSRRYRGDSLILETTFETATGSITLIDFMPPRGSASDVVRLVRGDRGRVKVAMQLVIRFGYGVALEHHHHHH | not soluble |
| MKILRFNEGRWGVLEGELVLETDGPGGNPTGRRYDLASVTLLPPATPTKIVCVGRNYREHIREMGHDFGEDLPKEPGLFLKGPNALARPGNPRDPWGTAEPVPYPFFTEELHYEGELAVVVGDRMRHVPPEKALDHVLGYTVAVDITARDVQKKDLQWVRAKSADKFLPLGPWLETDLNPQDTWVRTYVNGTLRQEGHTSQMIFSVAEILSYISTFMTLEPLDVVLTGTPEGVGALRPGDRLEVAVEGVGTLFTLIGPKEERPW | soluble |
| PGWEIIHENGRPLYYNAEQKTKLHYPP | soluble |
| MGSDKIHHHHHHMRRGGTAFSSKCKICGKAAPFSLPVCPECSKKDAALEIATSLHPPLYEKRVEGCNLCSNKCSGIALCGKPEYGKLTYYEDPLPTNCCNAWFCNGSKLTGTNLAVFYYGCNFDCLYCQNWTHKYFEDVRTVSVDELLRAAKNFRVRCVCHFGGSPEPQLPFALKFSRKALEFKEDLMICWEWNGAGNTSLALKAAELSSRSGGTVKFDLKAWNPNLHVLLTGRDNERVKDNFERIYDKHGEVLSATTLLVPYYVDEEEVEGIARFISSFSTEIPYSLLVFHPDYRMSDFPVTPVQQVKRCYKAAKKHLKNVNIGNLHLLGL | not soluble |
| MNKVIKMLVVTLAFLLVLAGCSGNSNKQSSDNKDKETTSIKHAMGTTEIKGKPKRVVTLYQGATDVAVSLGVKPVGAVESWTQKPKFEYIKNDLKDTKIVGQEPAPNLEEISKLKPDLIVASKVRNEKVYDQLSKIAPTVSTDTVFKFKDTTKLMGKALGKEKEAEDLLKKYDDKVAAFQKDAKAKYKDAWPLKASVVNFRADHTRIYAGGYAGEILNDLGFKRNKDLQKQVDNGKDIIQLTSKESIPLMNADHIFVVKSDPNAKDAALVKKTESEWTSSKEWKNLDAVKNNQVSDDLDEITWNLAGGYKSSLKLIDDLYEKLNIEKQSK | not soluble |
| EHLRLDNDQREKYIQEARNMGSTIRQPKLSNLSPSVIAQTNWKFVEGLLKECRNKTKRMLVEKMGREAVELGHGEVNITGVEENTLIASLCDLLERIWSHGLQVKQGKSALWSHLLHYQENRQRKLTSGSLSTSGILLDSERRKSDASAVMSPLRISLIQDMRHIQNIGEIKTDVGKARAWVRLSMEKKLLSRHLKQLLSDHELTKKLYKRYAFLRCDDEKEQFLYHLLSFNAVDYFCFTNVFTTILIPYHILIVPSKKLGGSMFTANPWICISGELGETQILQIPRNVLEMTFECQNLGKLTTVQIGHDNSGLYAKWLVECVMVRNEVTGHTYKFPCGRWLGKGMDDGSLERVLVGELLTSLPEVDERPCRTPPLQQSPSVIR | soluble |
| MELQEVLRMNGGEGDTSYAKNSAYNQLVLAKVKPVLEQCVRELLRANLPNINKCIKVADLGCASGPNTLLTVRDIVQSIDKVGQEKKNELERPTIQIFLNDLFPNDFNSVFKLLPSFYRKLEKENGRKIGSCLIGAMPGSFYSRLFPEESMHFLHSCYCLQWLSQVPSGLVTELGIGTNKGSIYSSKASRLPVQKAYLDQFTKDFTTFLRIHSEELFSHGRMLLTCICKGVELDARNAIDLLEMAINDLVVEGHLEEEKLDSFNLPVYIPSAEEVKCIVEEEGSFEILYLETFKVLYDAGFSIDDEHIKAEYVASSVRAVYEPILASHFGEAIIPDIFHRFAKHAAKVLPLGKGFYNNLIISLAKKPEKSDM | soluble |
| MGSDKIHHHHHHMFRLAKEELEKLGAMITATEIYQQPGLWKEAHQLYFDQLEKIESFLKSIKEKHDFVHVVFTGAGTSDFVGQSIANYLNQVNDLKHIRFSAIGTVELVSRPHDYLQADLPTILVSFARSGNSPESVAAVEVAKQLVDKLYQVTITCAPEGKLALAAEGDVENLLLLQPAGSNDKGFAMTGSYSCMALTALLVFSPASQEEKAAWVEIIARLGQDVLDREDYVQDLINLDFERVIYLGSGGFYGLAHEAQLKILELTAGKIATMYESPLGFRHGPKSFINEKTLIFLFASNDAYTRQYDVDLLNEVHGDGIAERIVALSADKLVGTEAANFVLAEGGADLPDVFLTFPYILFAQTVSIMAAIKCNNLPDTPSPTGTVNRVVQGVIIHPLEK | not soluble |
| MSLKGSEVITKFSKVDTIMFDKTGTLTYGDPRVSQVKKYGQGQLAEQLLVSVEKESAHPLAKAITGYYEDLEAEEVEASRVLQGGGIVAQVAGQQVLVGNRYLLDQYHVLVTKEMERDMEELASAGNSLVLVAVNGQLELALGLKDEIRAGVKEDLAALKKQGVKNLLLLSGDNQKTVDLVAEELGPTEAYGQLLPEDKAEFVKKRQAAGEIVAFVGDGINDSPSLARADIGIAMGSGTDVAIETSNVVLMNGSFDRIPRALALAKATRRNMIENEGHHHHHH | soluble |
| MGESGTKSRFPIRVQLEANKQYYWCRCGLSQSQPFCDGAHRGTGMNPVVFVVRETSPVWLCVCKETKNIPFCDCFRTDLEHHHHHH | not soluble |
| MAHHHHHHMSRLKHVEWDEKNLEANAEYQRQHPVTIHITEPKTPYSYADGDDLEAEEEGLLKWDPAVNAKVKEIKEQIAGDFSDRPVAPIAKSGRPMLAEGTSTGELAQQQHQKEFRKMRKAVYADEGAMFKRALSHECKDEDDE | not soluble |
| MGSDKIHHHHHHMTQMEMARKGVVSDEMKKVAEYEGVDVEIVRQKLAEGRAVLPKNKLHRIERPMIVGEGFSVKVNANIGTSQGFSSLEEEKEKARVAIEYGADSLMVLSTWGDLREIRRAIVEMSPVPVGSVPIYDSAVRSYQMKKNVVDFSEKDFFDMVIAHAEDGIDFMTIHVGVTRRVLDRIKSSRRVLKIVSRGGAIIAGWMIKNNKENPFYEHFDELLDIAKDYDITLSLGDGMRPGAVVDASDAQQFEELFVMGELVERAREKGVQVMLEGPGHVPLNEVEMNVRLMKKIGKGAPIFLLGPLPTDRAMGYDHIACAIGGALAGYYGADFLCYVTPSEHISLPDVEDVREGVIASKIAAIVADVARGNKKAWELEKKMALARKNFDWETMFSLSLGKDVAKKKYEERPYPDKGCSMCGPFCAIKIAEEFS | not soluble |
| MKYIINHSNDTAFNIALEEYAFKHLLDEDQIFLLWINKPSIIVGRHQNTIEEINRDYVRENGIEVVRRISGGGAVYHDLNNLNYTIISKEDENKAFDFKSFSTPVINTLAQLGVKAEFTGRNDLEIDGKKFCGNAQAYINGRIMHHGCLLFDVDLSVLANALKVSKDKFESKGVKSVRARVTNIINELPKKITVEKFRDLLLEYMKKEYPEMTEYVFSEEELAEINRIKDTKFGTWDWNYGKSPEFNVRRGIKFTSGKVEVFANVTESKIQDIKIYGDFFGIEDVAAVEDVLRGVKYEREDVLKALKTIDITRYFAGISREEIAEAVVG | not soluble |
| MGSDKIHHHHHHYPEPVLNPESCTSIMVGKKASADGSVMTSHTCDSNYRTWMDIVPSASYDHDTTTTVYTGRMHTEYAEGTRGMIAKGTLPEARSTYQFLNTAYPCLNEKQLGIGETTITGRKALVNKKGMFMIEELQRIALQRCTTARDAIRLMGELIEKYGYGDWGECLTIADPKEVWHFEVFGEGPDKIGGVWAAIRIPDDHVGVSANIPRISKVDPSDKENCMASANVFEVAKRMGFWDGKKPFRFWEAYGGGNYSGELKSFSIREFFILNKLAPSLHLSYDAEELPISVKPEKPVDVTDVMALLSETYEGTEYDMTKNLKVAVKKKDSNETDTIISPVANPWMTTDMVNMLNGLRPDAVKRYRLVAVPQCSYSTVIQLRDWLPDAVGGVVWMAYDNPGQSPRIPIFCGTKDLPACFKVCGQHRYREDAAVWAFRRANKLATVRWGATKDRMKASIAHFTEKGQTELPFVESRYKEILTQQGEEAAKEYLTGYTADFAGATMLRWREMGDSFWTQFERGF | not soluble |
| SDLSALRVEEVQNVINAMQKILECPICLELIKEPVSTKCDHIFCKFCMLKLLNQKKGPSQCPLCKNDITKRSLQESTRFSQLVEELLKIICAFQLDTGLEYANSYNFAKK | soluble |
